According to patent US20180243435A1 (AbbVie / Abbott, published 2018):
Positions count from the first letter of the chain named. Each block holds one binder with its values, some of them ahead of it.

Key:
[1] = biological target: T1, DLL3 on DLL3-expressing HEK293T cells (human, UniProt Q9NYJ7 27-618); assay: immunohistochemistry on HEK293T parental vs DLL3-expressing cell pellets
T1 construct: Cells were formalin fixed and paraffin embedded for IHC; also called DLL3-overexpressing HEK293T cell pellets; DLL3-expressing HEK293T FFPE sections
T1 sequence: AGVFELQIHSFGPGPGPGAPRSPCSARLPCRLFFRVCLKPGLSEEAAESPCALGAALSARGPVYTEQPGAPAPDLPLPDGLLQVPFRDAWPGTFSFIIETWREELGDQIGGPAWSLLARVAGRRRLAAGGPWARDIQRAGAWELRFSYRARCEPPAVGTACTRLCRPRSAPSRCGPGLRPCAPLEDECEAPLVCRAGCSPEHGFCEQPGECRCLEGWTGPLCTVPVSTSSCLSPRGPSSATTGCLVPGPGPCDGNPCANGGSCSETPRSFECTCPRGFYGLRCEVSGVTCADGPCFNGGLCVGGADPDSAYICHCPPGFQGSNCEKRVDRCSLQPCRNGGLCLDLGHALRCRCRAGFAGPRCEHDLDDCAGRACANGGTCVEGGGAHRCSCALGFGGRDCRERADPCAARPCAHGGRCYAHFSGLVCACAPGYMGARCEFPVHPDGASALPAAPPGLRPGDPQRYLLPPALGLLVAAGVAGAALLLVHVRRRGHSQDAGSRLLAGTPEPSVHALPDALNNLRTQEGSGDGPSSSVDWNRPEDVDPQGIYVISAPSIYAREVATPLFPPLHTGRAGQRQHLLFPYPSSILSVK
Description: (§1) In order to identify an IHC-compatible anti-DLL3 antibody, IHC was performed on HEK293T parental cell pellets or DLL3-expressing HEK293T cell pellets using numerous anti-DLL3 antibodies of the invention. Several murine anti-DLL3 antibodies (including SC16.65) were able to specifically detect DLL3-overexpressing HEK293T cell pellets more effectively than other anti-DLL3 antibodies of the invention that were tested (data not shown). The ability of these antibodies to specifically detect DLL3 was confirmed by a competition experiment in which the relevant anti-DLL3 antibody was mixed with a 5× molar ratio excess of hDLL3-His protein and then incubated with DLL3-expressing HEK293T formalin fixed and paraffin embedded (FFPE) sections.

[2] = biological target: T2, human DLL3-His protein (human, UniProt Q9NYJ7 27-492); assay: IHC competition: antibody mixed with a 5x molar ratio excess of hDLL3-His before staining FFPE sections
T2 construct: Purified from supernatants of CHO-S cells; also called hDLL3-His; recombinant DLL3-His; not shown: His tag
T2 sequence: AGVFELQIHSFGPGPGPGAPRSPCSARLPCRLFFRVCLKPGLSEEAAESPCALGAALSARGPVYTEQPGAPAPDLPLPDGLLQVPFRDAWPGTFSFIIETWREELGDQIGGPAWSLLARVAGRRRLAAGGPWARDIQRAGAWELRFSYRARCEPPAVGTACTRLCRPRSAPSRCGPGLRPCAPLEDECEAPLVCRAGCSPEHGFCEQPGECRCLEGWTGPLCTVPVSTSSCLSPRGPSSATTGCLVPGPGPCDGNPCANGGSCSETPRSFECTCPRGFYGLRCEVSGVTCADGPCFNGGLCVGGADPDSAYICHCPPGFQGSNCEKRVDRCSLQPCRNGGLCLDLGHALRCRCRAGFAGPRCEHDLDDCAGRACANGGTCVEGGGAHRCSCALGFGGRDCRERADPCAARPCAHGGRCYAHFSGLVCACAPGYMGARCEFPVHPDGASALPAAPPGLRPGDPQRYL
Description: as §1

[3] = biological target: T3, DLL3 extracellular domain (amino acids 27-466) displayed on yeast (human, UniProt Q9NYJ7 27-466); assay: fine epitope mapping (phage display peptide library or yeast display of DLL3 ECD mutants)
T3 construct: also called DLL3 ECD; wild type DLL3 ECD
T3 sequence: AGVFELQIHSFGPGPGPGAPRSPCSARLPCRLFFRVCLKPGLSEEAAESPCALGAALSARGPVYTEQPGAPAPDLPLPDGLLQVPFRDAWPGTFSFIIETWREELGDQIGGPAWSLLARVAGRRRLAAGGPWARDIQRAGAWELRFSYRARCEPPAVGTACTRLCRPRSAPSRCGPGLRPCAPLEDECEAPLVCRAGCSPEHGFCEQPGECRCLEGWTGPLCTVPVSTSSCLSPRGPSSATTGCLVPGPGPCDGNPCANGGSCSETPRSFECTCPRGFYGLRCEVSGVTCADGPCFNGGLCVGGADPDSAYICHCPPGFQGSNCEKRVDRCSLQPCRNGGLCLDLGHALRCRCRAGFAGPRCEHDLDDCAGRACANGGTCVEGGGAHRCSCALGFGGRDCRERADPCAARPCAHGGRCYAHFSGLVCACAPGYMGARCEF

binding result [1]: binds
binding result [2]: binds
B1: SC16.65 (antibody, V domains shown)
VH: QVTLKESGPGILQPSQTLSLTCSFSGFSLSTSGMGVGWIRQPSGKGLEWLALIWWDDVKRYNPALKSRLTISKDASSSQVFLKIASVDTADTATYYCARIASYDYDVVYAMDYWGQGTSVSVSS
VL: QIVLTQSPALMSASPGEKVTMTCSVTSSVSYMYWYQQKPRSSPKPWIYLTSNLASGVPARFSGSGSGTSYSLTISSVEAEDAATYYCQQWRNNPFTFGSGTKVEIK
notes: murine hybridoma mAb

binding result [3]: binds
B2: SC16.34 (antibody, V domains shown)
VH: QIQLVQSGPELKRPGETVKISCKASGYTFTNYGMNWVKQAPGKGLKWMGWINTYTGDPTYADDFKGRFAFSLETSASTAYLQINNLKNEDTATYFCARIGGNSPSDYWGQGTSLTVSS
VL: SIVMTQTPKFLLVSAGDRVTITCKASQSVSNDVAWYQQKPGQSPKLLIYYASNRYSGVPDRFTGSGYGTDFTFTISTVQAEDLAVYFCQQDYSSPWTFGGGTKLEIK
notes: murine hybridoma mAb

binding result [3]: binds
B3: SC16.56 (antibody, V domains shown)
VH: B2 VH with R13K, G49A, D57E, Y80S, N84I, G101D, N102S, S113T
VL: B2 VL with A34V, S56T, T63A, T72S, S93T, K107R
notes: murine hybridoma mAb

binding result [3]: binds
B4: SC16.23 (antibody, V domains shown)
VH: QVTLKESGPGILQPSQTLSLTCSFSGFSLSTSNTGIGWIRQPSGTGLEWLAHIWWNDDKYYNPSLKSRLTISKETSNNQVFLKITNVDTADTASYFCVQIGRDYSNYAWYFDVWGAGTTVTVSS
VL: QIVLTQSPAIMSASPGEKVTLTCSASSSVSSRYLYWYQQKPGSSPKLWIYSTSNLASGVPARFSGSGSGTSYSLIISSMEAEDAASYFCHQWSNYPLTFGAGTKLELK
notes: murine hybridoma mAb
